Target: IL-8 binding sites on human neutrophils (human)
Test: competition of 125I-IL-8 by unlabelled IL-8 on human neutrophils, 2 hr at 4 degrees

In the case of “human 72 amino acid IL-8 (from UniProt P10145 21-99) (ligand)”, the Kd is reported as 1.1 nM and the binding sites/cell (binding sites/cell) is reported as 31000.

Source: EP0577752B2
